target: T1, recombinant human sc-uPA (human, UniProt P00749 21-431); assay: SPR, mAb immobilised
T1 construct: 411 amino acid single-chain zymogen expressed in HEK293; the 20-residue signal peptide is not present in the mature protein; also called human single-chain uPA; pro-uPA
Procedure: The binding affinity to recombinant human sc-uPA protein (SEQ ID […]) was measured by surface plasmon resonance (SPR).
The experiments were performed on a Biacore™ instrument (GE Healthcare) and analysed with the BIAcore 4000 Evaluation Software. Anti-human uPA mAb variants were directly immobilized at 150-600 RU on flow cells of a CM5 sensor chip (GE Healthcare; cat. # BR-1000-12) via amine coupling, respectively. Recombinant human sc-uPA was diluted in HBS-N (GE Healthcare Cat BR-1006-70) with 1% BSA buffer with a dilution factor 3× ranging 1000-0.13 nM. Recombinant human sc-uPA was injected for 60 s, followed by a 600 s dissociation phase. Binding curves were measured at 25° C. with a flow rate of 30 μL/min. Regeneration of the chip surface was performed with pH1.5 Glycine for 25 s at 30 μl/min. Determination of the kinetic parameters was performed by fitting with a 1:1 binding model. Binding affinities were calculated and are stated in Table 20 below.

Kd [nM] | Binder
1.1 | rec0266-0000-0010-VL_N90K (antibody, mouse IgG1, name in Kabat numbering, V domains shown) VH: DVKLVESGGGLVKPGGSLKLSCVASGFTFSSYTMSWVRQTPEKRLEWVATISGGGSHIYYADSVKGRFTISRDNAKNTLYLQMSSLKSEDTAIYYCTRDGRDGSWFAYWGQGTLVTVSA VL: DIVMTQSPATLSVTPGDRVSLSCRTSQSIGDYLHWYQQKSHESPRLLIKYVSQSISGIPSRFSGSGSGSDFTLSINSVESEDVGVYYCQKSHSFPLTFGSGTKLELKR
3.2 | rec0266-0000-0010-VL_S91K (antibody, mouse IgG1, name in Kabat numbering, V domains shown) VH: DVKLVESGGGLVKPGGSLKLSCVASGFTFSSYTMSWVRQTPEKRLEWVATISGGGSHIYYADSVKGRFTISRDNAKNTLYLQMSSLKSEDTAIYYCTRDGRDGSWFAYWGQGTLVTVSA VL: DIVMTQSPATLSVTPGDRVSLSCRTSQSIGDYLHWYQQKSHESPRLLIKYVSQSISGIPSRFSGSGSGSDFTLSINSVESEDVGVYYCQNKHSFPLTFGSGTKLELKR
2 | rec0266-0000-0010-VL_S91P (antibody, mouse IgG1, name in Kabat numbering, V domains shown) VH: DVKLVESGGGLVKPGGSLKLSCVASGFTFSSYTMSWVRQTPEKRLEWVATISGGGSHIYYADSVKGRFTISRDNAKNTLYLQMSSLKSEDTAIYYCTRDGRDGSWFAYWGQGTLVTVSA VL: DIVMTQSPATLSVTPGDRVSLSCRTSQSIGDYLHWYQQKSHESPRLLIKYVSQSISGIPSRFSGSGSGSDFTLSINSVESEDVGVYYCQNPHSFPLTFGSGTKLELKR
0.38 | rec0266-0000-0010-VL_N90S (antibody, mouse IgG1, name in Kabat numbering, V domains shown) VH: DVKLVESGGGLVKPGGSLKLSCVASGFTFSSYTMSWVRQTPEKRLEWVATISGGGSHIYYADSVKGRFTISRDNAKNTLYLQMSSLKSEDTAIYYCTRDGRDGSWFAYWGQGTLVTVSA VL: DIVMTQSPATLSVTPGDRVSLSCRTSQSIGDYLHWYQQKSHESPRLLIKYVSQSISGIPSRFSGSGSGSDFTLSINSVESEDVGVYYCQSSHSFPLTFGSGTKLELKR
5.3 | rec0266-0000-0010-VL_S91H (antibody, mouse IgG1, name in Kabat numbering, V domains shown) VH: DVKLVESGGGLVKPGGSLKLSCVASGFTFSSYTMSWVRQTPEKRLEWVATISGGGSHIYYADSVKGRFTISRDNAKNTLYLQMSSLKSEDTAIYYCTRDGRDGSWFAYWGQGTLVTVSA VL: DIVMTQSPATLSVTPGDRVSLSCRTSQSIGDYLHWYQQKSHESPRLLIKYVSQSISGIPSRFSGSGSGSDFTLSINSVESEDVGVYYCQNHHSFPLTFGSGTKLELKR
0.62 | rec0266-0000-0010-VL_N90P (antibody, mouse IgG1, name in Kabat numbering, V domains shown) VH: DVKLVESGGGLVKPGGSLKLSCVASGFTFSSYTMSWVRQTPEKRLEWVATISGGGSHIYYADSVKGRFTISRDNAKNTLYLQMSSLKSEDTAIYYCTRDGRDGSWFAYWGQGTLVTVSA VL: DIVMTQSPATLSVTPGDRVSLSCRTSQSIGDYLHWYQQKSHESPRLLIKYVSQSISGIPSRFSGSGSGSDFTLSINSVESEDVGVYYCQPSHSFPLTFGSGTKLELKR
10 | rec0266-0000-0010-VL_S91E (antibody, mouse IgG1, name in Kabat numbering, V domains shown) VH: DVKLVESGGGLVKPGGSLKLSCVASGFTFSSYTMSWVRQTPEKRLEWVATISGGGSHIYYADSVKGRFTISRDNAKNTLYLQMSSLKSEDTAIYYCTRDGRDGSWFAYWGQGTLVTVSA VL: DIVMTQSPATLSVTPGDRVSLSCRTSQSIGDYLHWYQQKSHESPRLLIKYVSQSISGIPSRFSGSGSGSDFTLSINSVESEDVGVYYCQNEHSFPLTFGSGTKLELKR
0.58 | rec0266-0000-0010-VL_N90V (antibody, mouse IgG1, name in Kabat numbering, V domains shown) VH: DVKLVESGGGLVKPGGSLKLSCVASGFTFSSYTMSWVRQTPEKRLEWVATISGGGSHIYYADSVKGRFTISRDNAKNTLYLQMSSLKSEDTAIYYCTRDGRDGSWFAYWGQGTLVTVSA VL: DIVMTQSPATLSVTPGDRVSLSCRTSQSIGDYLHWYQQKSHESPRLLIKYVSQSISGIPSRFSGSGSGSDFTLSINSVESEDVGVYYCQVSHSFPLTFGSGTKLELKR
2.1 | rec0266-0000-0010-VL_S91D (antibody, mouse IgG1, name in Kabat numbering, V domains shown) VH: DVKLVESGGGLVKPGGSLKLSCVASGFTFSSYTMSWVRQTPEKRLEWVATISGGGSHIYYADSVKGRFTISRDNAKNTLYLQMSSLKSEDTAIYYCTRDGRDGSWFAYWGQGTLVTVSA VL: DIVMTQSPATLSVTPGDRVSLSCRTSQSIGDYLHWYQQKSHESPRLLIKYVSQSISGIPSRFSGSGSGSDFTLSINSVESEDVGVYYCQNDHSFPLTFGSGTKLELKR
0.61 | rec0266-0000-0010-VL_N90L (antibody, mouse IgG1, name in Kabat numbering, V domains shown) VH: DVKLVESGGGLVKPGGSLKLSCVASGFTFSSYTMSWVRQTPEKRLEWVATISGGGSHIYYADSVKGRFTISRDNAKNTLYLQMSSLKSEDTAIYYCTRDGRDGSWFAYWGQGTLVTVSA VL: DIVMTQSPATLSVTPGDRVSLSCRTSQSIGDYLHWYQQKSHESPRLLIKYVSQSISGIPSRFSGSGSGSDFTLSINSVESEDVGVYYCQLSHSFPLTFGSGTKLELKR
2.2 | rec0266-0000-0010-VL_S91Q (antibody, mouse IgG1, name in Kabat numbering, V domains shown) VH: DVKLVESGGGLVKPGGSLKLSCVASGFTFSSYTMSWVRQTPEKRLEWVATISGGGSHIYYADSVKGRFTISRDNAKNTLYLQMSSLKSEDTAIYYCTRDGRDGSWFAYWGQGTLVTVSA VL: DIVMTQSPATLSVTPGDRVSLSCRTSQSIGDYLHWYQQKSHESPRLLIKYVSQSISGIPSRFSGSGSGSDFTLSINSVESEDVGVYYCQNQHSFPLTFGSGTKLELKR
3.1 | rec0266-0000-0010-VL_S91R (antibody, mouse IgG1, name in Kabat numbering, V domains shown) VH: DVKLVESGGGLVKPGGSLKLSCVASGFTFSSYTMSWVRQTPEKRLEWVATISGGGSHIYYADSVKGRFTISRDNAKNTLYLQMSSLKSEDTAIYYCTRDGRDGSWFAYWGQGTLVTVSA VL: DIVMTQSPATLSVTPGDRVSLSCRTSQSIGDYLHWYQQKSHESPRLLIKYVSQSISGIPSRFSGSGSGSDFTLSINSVESEDVGVYYCQNRHSFPLTFGSGTKLELKR
11 | rec0266-0000-0010-VL_S91F (antibody, mouse IgG1, name in Kabat numbering, V domains shown) VH: DVKLVESGGGLVKPGGSLKLSCVASGFTFSSYTMSWVRQTPEKRLEWVATISGGGSHIYYADSVKGRFTISRDNAKNTLYLQMSSLKSEDTAIYYCTRDGRDGSWFAYWGQGTLVTVSA VL: DIVMTQSPATLSVTPGDRVSLSCRTSQSIGDYLHWYQQKSHESPRLLIKYVSQSISGIPSRFSGSGSGSDFTLSINSVESEDVGVYYCQNFHSFPLTFGSGTKLELKR
5.7 | rec0266-0000-0010-VL_S91L (antibody, mouse IgG1, name in Kabat numbering, V domains shown) VH: DVKLVESGGGLVKPGGSLKLSCVASGFTFSSYTMSWVRQTPEKRLEWVATISGGGSHIYYADSVKGRFTISRDNAKNTLYLQMSSLKSEDTAIYYCTRDGRDGSWFAYWGQGTLVTVSA VL: DIVMTQSPATLSVTPGDRVSLSCRTSQSIGDYLHWYQQKSHESPRLLIKYVSQSISGIPSRFSGSGSGSDFTLSINSVESEDVGVYYCQNLHSFPLTFGSGTKLELKR
0.48 | rec0266-0000-0010-VL_N90T (antibody, mouse IgG1, name in Kabat numbering, V domains shown) VH: DVKLVESGGGLVKPGGSLKLSCVASGFTFSSYTMSWVRQTPEKRLEWVATISGGGSHIYYADSVKGRFTISRDNAKNTLYLQMSSLKSEDTAIYYCTRDGRDGSWFAYWGQGTLVTVSA VL: DIVMTQSPATLSVTPGDRVSLSCRTSQSIGDYLHWYQQKSHESPRLLIKYVSQSISGIPSRFSGSGSGSDFTLSINSVESEDVGVYYCQTSHSFPLTFGSGTKLELKR
0.32 | rec0266-0000-0010-VL_N90Q (antibody, mouse IgG1, name in Kabat numbering, V domains shown) VH: DVKLVESGGGLVKPGGSLKLSCVASGFTFSSYTMSWVRQTPEKRLEWVATISGGGSHIYYADSVKGRFTISRDNAKNTLYLQMSSLKSEDTAIYYCTRDGRDGSWFAYWGQGTLVTVSA VL: DIVMTQSPATLSVTPGDRVSLSCRTSQSIGDYLHWYQQKSHESPRLLIKYVSQSISGIPSRFSGSGSGSDFTLSINSVESEDVGVYYCQQSHSFPLTFGSGTKLELKR
1.9 | rec0266-0000-0010-VL_N90R (antibody, mouse IgG1, name in Kabat numbering, V domains shown) VH: DVKLVESGGGLVKPGGSLKLSCVASGFTFSSYTMSWVRQTPEKRLEWVATISGGGSHIYYADSVKGRFTISRDNAKNTLYLQMSSLKSEDTAIYYCTRDGRDGSWFAYWGQGTLVTVSA VL: DIVMTQSPATLSVTPGDRVSLSCRTSQSIGDYLHWYQQKSHESPRLLIKYVSQSISGIPSRFSGSGSGSDFTLSINSVESEDVGVYYCQRSHSFPLTFGSGTKLELKR
0.8 | rec0266-0000-0010-VL_N90Y (antibody, mouse IgG1, name in Kabat numbering, V domains shown) VH: DVKLVESGGGLVKPGGSLKLSCVASGFTFSSYTMSWVRQTPEKRLEWVATISGGGSHIYYADSVKGRFTISRDNAKNTLYLQMSSLKSEDTAIYYCTRDGRDGSWFAYWGQGTLVTVSA VL: DIVMTQSPATLSVTPGDRVSLSCRTSQSIGDYLHWYQQKSHESPRLLIKYVSQSISGIPSRFSGSGSGSDFTLSINSVESEDVGVYYCQYSHSFPLTFGSGTKLELKR
2.9 | rec0266-0000-0010-VL_S91I (antibody, mouse IgG1, name in Kabat numbering, V domains shown) VH: DVKLVESGGGLVKPGGSLKLSCVASGFTFSSYTMSWVRQTPEKRLEWVATISGGGSHIYYADSVKGRFTISRDNAKNTLYLQMSSLKSEDTAIYYCTRDGRDGSWFAYWGQGTLVTVSA VL: DIVMTQSPATLSVTPGDRVSLSCRTSQSIGDYLHWYQQKSHESPRLLIKYVSQSISGIPSRFSGSGSGSDFTLSINSVESEDVGVYYCQNIHSFPLTFGSGTKLELKR
1.3 | rec0266-0000-0010-VL_S91A (antibody, mouse IgG1, name in Kabat numbering, V domains shown) VH: DVKLVESGGGLVKPGGSLKLSCVASGFTFSSYTMSWVRQTPEKRLEWVATISGGGSHIYYADSVKGRFTISRDNAKNTLYLQMSSLKSEDTAIYYCTRDGRDGSWFAYWGQGTLVTVSA VL: DIVMTQSPATLSVTPGDRVSLSCRTSQSIGDYLHWYQQKSHESPRLLIKYVSQSISGIPSRFSGSGSGSDFTLSINSVESEDVGVYYCQNAHSFPLTFGSGTKLELKR
